Assay results taken from patent US20260132208A1 (DOMAIN THERAPEUTICS, published 2026).
Several values for one entry are separate records, joined by “and”; a condition that tells them apart may be missing. Equal values may be shown once.

Experiments:
human CCR8 [1] = target: T1, human CCR8 (human, UniProt P51685 1-355); experiment: cell-based or functional assay
human CCR8 [2] = target: T1, human CCR8; experiment: cell-based or functional assay; remark: listed apart in the source
pm5 = target: T2, pm5 (Y15 and Y17 sulfated; Y16 not sulfated); experiment: ELISA on coated peptide [cont.]
T2 construct: also called sulfated CCR8 N-terminal peptide pm5
Experimental: (§1) The specific binding properties of antibodies were evaluated by ELISA with coated CCR8 related peptides (500 ng/ml) in carbonate/bicarbonate buffer. Different peptides were used as described in Table 1 (see Example 1). Each anti-CCR8 mAb was tested at 1 μg/mL then diluted at 1/10. After an incubation at room temperature during 90 min, unbound mAbs were removed by washings. […] After washings, 3,3′,5,5′-tetramethylbenzidine (TMB) (Interchim, Montluçon, France) was added for 15 min. Then the optical density (OD) was determined by using a multiplate reader (Tecan, Lyon, France) and correlated with mAb reactivity on the panel of coated peptides.

pm3 = target: T3, pm3 (Y17 sulfated; Y15 and Y16 not sulfated); experiment: ELISA on coated peptide [cont.]
T3 construct: also called sulfated CCR8 N-terminal peptide pm3
Experimental: as §1

pm6 = target: T4, pm6 (Y16 and Y17 sulfated; Y15 not sulfated); experiment: ELISA on coated peptide [cont.]
T4 construct: also called sulfated CCR8 N-terminal peptide pm6
Experimental: as §1

pm8 = target: T5, pm8 (Y15, Y16 and Y17 sulfated); experiment: ELISA on coated peptide [cont.]
T5 construct: also called sulfated CCR8 N-terminal peptide pm8
Experimental: as §1

human CCR8 [3] = target: T1, human CCR8; experiment: flow cytometry, inhibition of hCCL1-AF647 (10 nM) binding to hCCR8-CHO cells
Experimental: The hCCR8 transfected CHO cell line was dispatched at a density of 1.105 per well in a 96-well plate. Cells were incubated for 30 min at 4° C. with or without anti-CCR8 mAb tested at 10 μg/mL then diluted at 1/3. Unbound antibodies were washed away with PBS (Gibco, Villebon-sur-yvette, France) supplemented by 2% Fetal Bovine Serum (Invitrogen by Thermofisher Scientific, Illkirch-Graffenstaden, France) and 2 mM EDTA. […] After washing unbound ligands, CCL1 bound detection is quantified on a MacsQuant16 (Miltenyi, Gladbach, Germany) (R1 channel, 5 000 events per acquisition).
For IC₅₀ determination, a concentration response curve is performed using 8 concentrations of mAb. Curves are fitted and IC₅₀ of CCL1 binding blocking activity is calculated using the sigmoidal dose-response (variable slope) model on GraphPad Prism 9 (GraphPad Software, San Diego, CA, USA).

human CCR8 [4] = target: T1, human CCR8; experiment: flow cytometry, hCCR8-transfected CHO-K1 cells
Experimental: Briefly, 1.10⁵ cells per well in a 96 well plate were incubated with a dilution of unconjugated anti-CCR8 mAb at 10 μg/mL then diluted at 1/3.33, 4 dilution points (during 30 min at 4° C.). In human activated T cells model, prior to mAb incubation, cells were first incubated with 200 nM of hCCL1 (R&D Systems, Minneapolis, MN, USA) or buffer PBS (Invitrogen by Thermofisher Scientific, Illkirch-Graffenstaden, France) supplemented by 2% Fetal Bovine Serum (Invitrogen by Thermofisher Scientific, Illkirch-Graffenstaden, France) and 2 mM EDTA (Invitrogen by Thermofisher Scientific, Illkirch-Graffenstaden, France) during 1 hour at 4° C. To determine EC50 value, 8 concentrations of anti-CCR8 mAb were tested. Unbound antibodies were washed away with PBS (Invitrogen by Thermofisher Scientific, Illkirch-Graffenstaden, France) supplemented by 2% Fetal Bovine Serum (Invitrogen by Thermofisher Scientific, Illkirch-Graffenstaden, France) and 2 mM EDTA (Invitrogen by Thermofisher Scientific, Illkirch-Graffenstaden, France). Subsequently, cells are centrifuged (5 min at 400 g) and bound antibody is detected with F(ab′)2-Goat anti-Mouse IgG (H+L) Cross-Adsorbed Secondary Antibody, Alexa Fluor 488 (dilution 1/500) (Invitrogen by Thermofisher Scientific, Illkirch-Graffenstaden, France) or with F(ab′)₂-Goat anti-Human IgG Fc Secondary Antibody, PE (Invitrogen by Thermofisher Scientific, Illkirch-Graffenstaden, France) (dilution 1/1000) at 4° C. for 30 min. Detection reagent is washed away and cells are centrifuged (5 min at 400 g) and resuspended in 30 μL PBS. Bound detection antibody is quantified on a MacsQuant16 (Miltenyi, Gladbach, Germany) (B1 or B2 channel, 5000 events per acquisition). During the experiment, the respective isotype mAb controls (mouse IgG1, mouse IgG2a, mouse IgG2b, mouse IgG3 or human IgG1) (Biolegend, Amsterdam, The Netherlands) are included to exclude any unspecific binding events. EC50 values were determined via nonlinear fit “log (agonist) vs.response—Variable slope (four parameters)” function of Graphpad prism. EC50 values were not constantly determined in the same experiments.

human CCR8 [5] = target: T1, human CCR8; experiment: cell-based or functional assay; remark: listed apart in the source
human CCR8 [6] = target: T1, human CCR8; experiment: cell-based or functional assay; remark: listed apart in the source
human CCR8 [7] = target: T1, human CCR8; experiment: cell-based or functional assay; remark: listed apart in the source

T4 sequence (peptide, as listed by the source): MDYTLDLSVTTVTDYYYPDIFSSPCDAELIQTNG
T5 sequence (peptide, as listed by the source): as above
T3 sequence (peptide, as listed by the source): as above
T2 sequence (peptide, as listed by the source): as above

Row | Binder | extrapolated top plateau of hCCL1 curve with 5 µg/mL mAb, protocol #3 (human CCR8 [1]) | IC50 of CCL1-induced hCCR8 Gi2 signaling (BRET, HEK-293) (human CCR8 [2]) | IC50 (human CCR8 [3]) | % positive cells (human CCR8 [4]) [%] | MFI fold change to isotype ctrl (human CCR8 [4]) [fold] | residual hCCL1 (100 nM) Gi2 response, protocol #2, mAb 0.08 µg/mL (human CCR8 [5]) [%] | residual hCCL1 (100 nM) Gi2 response, protocol #2, mAb 0.4 µg/mL (human CCR8 [5]) [%] | residual hCCL1 (100 nM) Gi2 response, protocol #2, mAb 10 µg/mL (human CCR8 [5]) [%] | residual hCCL1 (100 nM) Gi2 response, protocol #3, mAb 0.05 µg/mL (human CCR8 [5]) [%] | residual hCCL1 (100 nM) Gi2 response, protocol #3, mAb 0.5 µg/mL (human CCR8 [5]) [%] | residual hCCL1 (100 nM) Gi2 response, protocol #3, mAb 5 µg/mL (human CCR8 [5]) [%] | ADCC % max lysis, HUT78 targets, NK donor 3 (human CCR8 [7]) [%] | ADCC % max lysis, HUT78 targets, NK donor 4 (human CCR8 [7]) [%] | ADCC EC50, HUT78 targets, NK donor 3 (human CCR8 [7]) [nM] | ADCC EC50, HUT78 targets, NK donor 4 (human CCR8 [7]) [nM] | other results
1 | anti-CCR8 mAb 1-10 (antibody, V domains shown, Murine hybridoma mAb) VH: EVQLQQSGPELVKPGASVKISCKTSGYTFTEYTIHWVKQSHGESLEWVGGINPNNGNTRYDQKFKGKATLTIDKSSSPAYMELRSLTSEDSAVYYCARVARSSGSGPYAMDYWGQGTSVTVSS VL: DVVMTQTPLSLPVSLGDQASISCRCTQSLLHTNGDTYLHWYLQKPGQSPKLLIYKVSNRFSGVPDRFSGSGSGTDFTLKISRVEAEDLGVYFCSQSTHVPYTFGGGTKLEIK | 855 % of hCCL1 (100 nM) | 0.046 µg/mL and 0.306 nM | ~0.6 µg/mL and 4.01 nM | 56.2 | 4.78 | 104 | 46 | 28 | 80 | 57 | 45 | – | – | – | – | binding result (pm5): binds; binding result (pm3): binds; binding result (pm6): binds; binding result (pm8): binds
2 | anti-CCR8 mAb 1-17 (antibody, V domains shown, Murine hybridoma mAb) VH: QVQLQQPGSELVRPGASVKLSCKASGYTFTSYWMHWVKQRPGQGLEWIGNIWPGSASTNYDEKFKNKATLTVDTSSSTAYMQLSSLTSEDSAVYYCIRGGKGAMDYWSQGTSVTVSS VL: DVVMTQIPLSLPVSLGDQASISCRSSQSLENSYGNTYLNWYLQKPGQSPQLLIYRVSNRFSGVLDRFSGSGSGTDFTLKISRVEAEDLGVYFCLQVTHVPPTFGAGTKLELK | 193000 % of hCCL1 (100 nM) | 0.026 µg/mL and 0.172 nM | 1.18 µg/mL and 7.92 nM | 81.6 | 9.92 | 99 | 83 | 56 | 116 | 90 | 45 | – | – | – | – | –
3 | anti-CCR8 mAb 1-16 (antibody, V domains shown, Murine hybridoma mAb) VH: EVQLQQSGPELVKPGASVKISCKASVYSFTGSYMHWVKQSHVKSLEWIGRINPYNGATSYNQNFKDKASLTVDKSSSTAYMELHSLTSEDSAVYYCATTLLRLLDYWGQGTTLTVSS VL: DIVMTQAAFSNPVTLGTSASISCRSSKSLLHSNGITYLYWYLQKPGQSPQLLIYQMSNLASGVPDRFSSSGSGTDFTLRISRVEAEDVGVYYCAQNLELPWTFGGGTKLEIK | 292 % of hCCL1 (100 nM) | 0.092 µg/mL and 0.616 nM | 6.41 µg/mL and 43 nM | 34.7 | 2.34 | 97 | 96 | 84 | 96 | 81 | 73 | – | – | – | – | IC50 of CCL1-induced hCCR8 Gi2 signaling (BRET), pH 6.5 (human CCR8 [6]): 0.162 µg/ml and 1.08 nM; IC50 of CCL1-induced hCCR8 Gi2 signaling (BRET), pH 7.4 (human CCR8 [6]): 0.152 µg/ml and 1.01 nM

More lines, main results first:

Row | extrapolated top plateau of hCCL1 curve with 5 µg/mL mAb, protocol #3 (human CCR8 [1]) | IC50 of CCL1-induced hCCR8 Gi2 signaling (BRET, HEK-293) (human CCR8 [2]) | IC50 (human CCR8 [3]) | % positive cells (human CCR8 [4]) [%] | MFI fold change to isotype ctrl (human CCR8 [4]) [fold] | residual hCCL1 (100 nM) Gi2 response, protocol #2, mAb 0.08 µg/mL (human CCR8 [5]) [%] | residual hCCL1 (100 nM) Gi2 response, protocol #2, mAb 0.4 µg/mL (human CCR8 [5]) [%] | residual hCCL1 (100 nM) Gi2 response, protocol #2, mAb 10 µg/mL (human CCR8 [5]) [%] | residual hCCL1 (100 nM) Gi2 response, protocol #3, mAb 0.05 µg/mL (human CCR8 [5]) [%] | residual hCCL1 (100 nM) Gi2 response, protocol #3, mAb 0.5 µg/mL (human CCR8 [5]) [%] | residual hCCL1 (100 nM) Gi2 response, protocol #3, mAb 5 µg/mL (human CCR8 [5]) [%] | ADCC % max lysis, HUT78 targets, NK donor 3 (human CCR8 [7]) [%] | ADCC % max lysis, HUT78 targets, NK donor 4 (human CCR8 [7]) [%] | ADCC EC50, HUT78 targets, NK donor 3 (human CCR8 [7]) [nM] | ADCC EC50, HUT78 targets, NK donor 4 (human CCR8 [7]) [nM] | Binder | other results
4 | – | – | – | – | – | – | – | – | – | – | – | 16 | 18 | 0.291 | 0.406 | anti-CCR8 mAb 1-45 (antibody, human IgG1, kappa) heavy: not shown light: DIQMTQTTSSLSASLGDRVTISCRASQDISNYLNWYQQKPDGTVKLLIYYTSRLHSGVPSRFSGSGSGTDYSLTISNLEQEDIATYFCQQGNKFPPTFGGGTKLEINRTVAAPSVFIFPPSDEQLKSGTASVVCLLNNFYPREAKVQWKVDNALQSGNSQESVTEQDSKDSTYSLSSTLTLSKADYEKHKVYACEVTHQGLSSPVTKSFNRGEC | –
5 | – | – | – | – | – | – | – | – | – | – | – | 25 | 30 | 0.00822 | 0.0489 | anti-CCR8 mAb 1-48 (antibody, human IgG1, kappa) heavy: QVQLVETGGGLVRPGNSLKLSCVTSGFTFSNYRMHWLRQPPGKRLEWIAVIKVKSDNYGANYAESVKGRFTISRDDSKSSVYLQVNRLREEDTATYYCSSPTYPGSSGFAYWGQGTLVTVSAASTKGPSVFPLAPSSKSTSGGTAALGCLVKDYFPEPVTVSWNSGALTSGVHTFPAVLQSSGLYSLSSVVTVPSSSLGTQTYICNVNHKPSNTKVDKKVEPKSCDKTHTCPPCPAPELLGGPDVFLFPPKPKDTLMISRTPEVTCVVVDVSHEDPEVKFNWYVDGVEVHNAKTKPREEQYNSTYRVVSVLTVLHQDWLNGKEYKCKVSNKALPLPEEKTISKAKGQPREPQVYTLPPSRDELTKNQVSLTCLVKGFYPSDIAVEWESNGQPENNYKTTPPVLDSDGSFFLYSKLTVDKSRWQQGNVFSCSVMHEALHNHYTQKSLSLSPG light: DIQMTQTTSSLSASLGDRVTISCRASQDISNYLNWYQQKPDGTVKLLIYYTSRLHSGVPSRFSGSGSGTDYSLTISNLEQEDIATYFCQQGNKFPPTFGGGTKLEINRTVAAPSVFIFPPSDEQLKSGTASVVCLLNNFYPREAKVQWKVDNALQSGNSQESVTEQDSKDSTYSLSSTLTLSKADYEKHKVYACEVTHQGLSSPVTKSFNRGEC | –
6 | – | – | – | – | – | – | – | – | – | – | – | 14 | 15 | 0.793 | 1.52 | anti-CCR8 mAb 1-33 (antibody, human IgG1, kappa) heavy: not shown light: DVVMTQTPLSLPVSLGDQASISCRCTQSLLHTNGDTYLHWYLQKPGQSPKLLIYKVSNRFSGVPDRFSGSGSGTDFTLKISRVEAEDLGVYFCSQSTHVPYTFGGGTKLEIKRTVAAPSVFIFPPSDEQLKSGTASVVCLLNNFYPREAKVQWKVDNALQSGNSQESVTEQDSKDSTYSLSSTLTLSKADYEKHKVYACEVTHQGLSSPVTKSFNRGEC | –
7 | – | – | – | – | – | – | – | – | – | – | – | 29 | 29 | 0.195 | 0.282 | anti-CCR8 mAb 1-35 (antibody, human IgG1, kappa, hypofucosylated (low fucosylated) Fc glycan) heavy: not shown light: DVVMTQTPLSLPVSLGDQASISCRCTQSLLHTNGDTYLHWYLQKPGQSPKLLIYKVSNRFSGVPDRFSGSGSGTDFTLKISRVEAEDLGVYFCSQSTHVPYTFGGGTKLEIKRTVAAPSVFIFPPSDEQLKSGTASVVCLLNNFYPREAKVQWKVDNALQSGNSQESVTEQDSKDSTYSLSSTLTLSKADYEKHKVYACEVTHQGLSSPVTKSFNRGEC | –
